In patent publication US8501695B2, “Tissue kallikrein for the treatment of diseases associated with amyloid protein” (DiaMedica, Inc., priority 2007, dated 2013):
“And” between values parts separate entries of the source, which are not always exact repeats. Equal values may be shown once.

Assay: Pharmacokinetic study of intranasal tissue kallikrein (125I-KLK1 tissue concentrations by gamma counting)
Type: in vivo
Conditions: rat, 30 min. end point, individual animal, listed as kallikrien
Method: The purpose of this study was to quantify the amount of tissue kallikrein (KLK1) reaching the central nervous system and peripheral tissues after intranasal administration to anesthetized rats. At 30 min after KLK1 administration, animals were transcardially perfused with ice-cold saline followed by paraformaldehyde fixative and tissues were dissected. The amount of radiolabeled KLK1 in each tissue sample was quantified by gamma counting and tissue concentrations were calculated using tissue weight and gamma counting of standards of the dosing solutions
Adult male Sprague Dawley rats (n=10, mean 335.4 g±4.57 g SE) were used for this study. Animals were group housed in the Regions Hospital Animal Care Facility with free access to food and water. Animals were kept on a 12 h light cycle. All experimental procedures were approved by the Animal Care and Use Committee at Regions Hospital under IACUC protocol number 08-022.
Tissue kallikrein was sent to Perkin-Elmer for ^125I-labelling (Quote NEX-084, lot C1541583). Non-labeled KLK1 from Sigma (cat#K3627-1KU, lot 018K1441) was also used. Non-labeled KLK1 was dissolved in 1×PBS (10×PBS, Sigma, cat #P5493, lot 027K8405 diluted in sterile water). The average dose was 48.1 μL, 75 μCi, and 2.6 mg.
• a. Prior to anesthesia, each rat was weighed. • b. An anesthesia cocktail was prepared and full, half, and quarter anesthesia doses were calculated according to the animal's weight with a full dose containing 30 mg/kg ketamine, 6 mg/kg xylazine, and 1 mg/kg acepromazine. • c. A 1-cc syringe fitted with a 25 G or 27 G, ½ inch needle was assembled and a full dose was drawn into the syringe for injection. • d. Rats were restrained in a towel as follows. Rats were placed ventral side down in the middle of a hand towel. The towel was then wrapped around the head and shoulders to restrain. Wrapped animals remained ventral side down while the left hind leg was located. • e. The left hind leg was drawn to the side and the needle was inserted just beneath the skin (subcutaneous) above the thigh. After ensuring that the needle was placed subcutaneously (and not intramuscularly), full doses were injected. Rats were placed in holding cages and the injection time noted. Animals should be under within 5 min. • f. Anesthesia was monitored throughout the procedures by assessing reflexes using pinching of the hind paw or tail. If a reflex was present, a half or quarter dose booster was administered as necessary. • g. During drug administration, animals received a half dose booster roughly 20-25 min after initial dose. Intranasal Delivery of ^125I-KLK1 • a. Anesthetized rats were placed on their backs on a heating pad in a metal surgical tray. The heating pad was connected to a thermostat and was automatically regulated to maintain a 37° C. temperature based on continuous measurement from a rectal probe. • b. A 2″×2″ gauze pad was rolled tightly into a pillow, taped together, and under the neck to maintain a correct neck position horizontal with the counter. • c. A lead impregnated shield was placed between the surgical tray and the experimenter for protection against radiation. The dose solution, pipette, pipette tips, and waste receptacle were arranged behind the shield for easy access. • d. A 6 μL drop was loaded into the pipette behind the shield. • e. A cotton swab covered in parafilm was used to occlude one naris completely (the flat part of the swab was pushed gently against the naris to prevent airflow), while the 6 μL drop was expelled slowly from the pipette (held at a 45° angle from the rat's midline), forming a drop on the pipette tip. The drop was lowered onto the open naris to be inhaled. • f. After two minutes, the alternate naris was occluded and a 6 μL drop was administered in the same fashion. • g. A drop was administered as described above every two minutes to alternating nares until a total of 8 drops was delivered (4 to each naris) over 14 min. • h. […]

B1: tissue kallikrein: serine protease that cleaves kininogen into kallidin; polypeptide SEQ ID NO:1 (Sus scrofa kallikrein 1), KLK1 from Sigma (protein, listed as Sus scrofa)
chain: MWSLVMRLALSLAGTGAAPPIQSRIIGGRECEKDSHPWQVAIYHYSSFQCGGVLVDPKWVLTAAHCKNDNYQVWLGRHNLFENEVTAQFFGVTADFPHPGFNLSLLKNHTKADGKDYSHDLMLLRLQSPAKITDAVKVLELPTQEPELGSTCQASGWGSIEPGPDDFEFPDEIQCVELTLLQNTFCADAHPDKVTESMLCAGYLPGGKDTCMGDSGGPLICNGMWQGITSWGHTPCGSANKPSIYTKLIFYLDWINDTITENP
modifications: 125I label in one form
Q: Which “concentration in Lung (R, top lobe)” value does the source give for B1 here?
A: The value was 48.6 nM and 48.7 nM and 46.8 nM and 18.2 nM and 37.2 nM and 30.1 nM and 27.9 nM and 24.4 nM and 64.3 nM and 25.5 nM.

Q: And the “concentration in Medulla” value?
A: The value was 12.3 nM and 9.9 nM and 13.99 nM and 17.4 nM and 11.1 nM and 21.0 nM and 21.1 nM and 10.6 nM and 20.5 nM and 10.8 nM.

Q: And the “concentration in Midbrain” value?
A: The value was 12.3 nM and 9.5 nM and 13.1 nM and 15.3 nM and 10.0 nM and 15.9 nM and 9.9 nM (2×) and 16.4 nM.

Q: And the “concentration in Muscle (R, deltoid)” value?
A: Its value is 24.2 nM (2×) and 17.7 nM and 17.5 nM and 15.8 nM and 12.4 nM and 16.5 nM and 23.1 nM and 29.3 nM and 33.2 nM.

Q: And the “concentration in Occipital Cortex” value?
A: Its value is 9.8 nM (2×) and 9.6 nM and 12.7 nM and 12.3 nM and 14.1 nM and 14.0 nM and 13.6 nM and 19.2 nM.

Q: And the “concentration in Olfactory Bulbs” value?
A: The value was 44.4 nM and 39.9 nM and 128.1 nM and 168.8 nM and 66.2 nM and 220.9 nM and 123.5 nM and 74.5 nM and 157.1 nM and 48.2 nM.

Q: And the “concentration in Olfactory Epithelium” value?
A: The value was 17,707.4 nM and 21,919.4 nM and 21,270.9 nM and 41,836.8 nM and 17,083.5 nM and 31,983.9 nM and 38,661.3 nM and 13,736.3 nM and 17,247.4 nM and 26,179.4 nM.

Q: What about the “concentration in Optic Chiasm” value of the same molecule?
A: Its value is 20.7 nM and 14.4 nM and 41.3 nM and 34.7 nM and 51.4 nM and 8.4 nM and 38.2 nM and 27.0 nM and 28.7 nM.

Q: What about the “concentration in Parietal Cortex” value of the same molecule?
A: Its value is 7.5 nM and 8.5 nM and 10.5 nM and 9.0 nM and 10.1 nM and 18.5 nM and 14.3 nM and 12.8 nM and 17.6 nM and 12.3 nM.

Q: What about the “concentration in Pituitary” value of the same molecule?
A: Its value is 86.9 nM and 44.0 nM and 58.9 nM and 51.8 nM and 79.3 nM and 59.7 nM and 44.3 nM and 67.9 nM and 48.1 nM.

Q: And the “concentration in Pons” value?
A: The value was 12.4 nM and 10.0 nM and 13.9 nM and 16.2 nM and 10.1 nM and 22.0 nM and 18.6 nM and 10.6 nM and 20.4 nM and 10.2 nM.

Q: What about the “concentration in Posterior Trigeminal Nerve” value of the same molecule?
A: The value was 82.3 nM and 37.8 nM and 60.5 nM and 48.7 nM and 47.7 nM and 50.2 nM and 35.9 nM and 70.5 nM and 32.6 nM.

Q: And the “concentration in Renal artery (L)” value?
A: Its value is 56.2 nM and 67.3 nM and 103.1 nM and 52.8 nM and 55.8 nM and 26.1 nM and 43.0 nM and 78.9 nM and 66.9 nM and 31.2 nM.

Q: And the “concentration in Respiratory Epithelium” value?
A: The value was 78,502.7 nM and 75,759.2 nM and 26,815.1 nM and 82,292.8 nM and 126,759.8 nM and 34,402.4 nM and 71,775.8 nM and 107,890.6 nM and 91,206.0 nM and 64,295.5 nM.

Q: What about the “concentration in Septal Nucleus” value of the same molecule?
A: Its value is 9.5 nM and 8.2 nM and 13.3 nM and 13.6 nM and 10.2 nM and 19.4 nM and 12.9 nM and 9.8 nM and 12.0 nM.

Q: What about the “concentration in Spinal Dura” value of the same molecule?
A: The value was 23.1 nM and 26.3 nM and 36.1 nM and 21.4 nM and 16.9 nM and 26.6 nM and 26.2 nM and 39.7 nM and 20.1 nM and 29.5 nM.

Q: And the “concentration in Spleen (tip)” value?
A: The value was 29.0 nM and 81.5 nM and 35.1 nM and 87.5 nM and 91.1 nM and 82.9 nM and 75.4 nM and 89.8 nM and 73.8 nM and 80.0 nM.

Q: And the “concentration in Striatum” value?
A: The value was 8.2 nM and 5.5 nM and 8.5 nM and 6.7 nM and 7.23 nM and 14.9 nM and 10.4 nM and 9.5 nM and 15.1 nM and 11.9 nM.

Q: And the “concentration in Superficial Nodes (2)” value?
A: Its value is 58.8 nM and 39.9 nM and 42.2 nM and 60.1 nM and 66.8 nM and 69.0 nM and 94.2 nM and 68.9 nM and 68.0 nM.

Q: And the “concentration in Temporal Cortex” value?
A: Its value is 9.9 nM and 7.8 nM and 11.65 nM and 10.4 nM and 14.2 nM and 16.6 nM and 15.6 nM and 12.5 nM and 13.7 nM and 11.5 nM.

Q: And the “concentration in Thalamus” value?
A: The value was 7.9 nM and 6.7 nM and 12.2 nM (2×) and 10.5 nM and 8.1 nM and 15.4 nM and 14.0 nM and 7.2 nM and 9.1 nM.

Q: What about the “concentration in Thoracic Spinal Cord” value of the same molecule?
A: The value was 5.5 nM and 5.1 nM and 6.7 nM and 4.5 nM and 4.2 nM and 6.5 nM and 4.7 nM and 5.7 nM and 4.1 nM and 5.0 nM.

Q: What about the “concentration in Thyroid” value of the same molecule?
A: The value was 1,730.9 nM and 2,077.1 nM and 2,106.5 nM and 1,369.2 nM and 2,644.1 nM and 2,380.4 nM and 1,219.8 nM and 2,016.7 nM and 2,148.4 nM and 2,013.3 nM.

Q: And the “concentration in Trachea” value?
A: The value was 58.5 nM and 116.8 nM and 64.5 nM and 93.6 nM and 44.8 nM and 59.3 nM and 65.1 nM and 110.6 nM and 86.4 nM.

Q: And the “concentration in Upper Cervical Spinal Cord” value?
A: The value was 16.0 nM and 17.0 nM and 18.18 nM and 31.6 nM and 18.8 nM and 35.1 nM and 37.2 nM and 20.4 nM and 27.0 nM and 12.8 nM.

Q: And the “concentration in Urine” value?
A: The value was 249.2 nM and 79.5 nM and 190.9 nM and 57.8 nM and 51.1 nM and 65.6 nM and 287.4 nM and 95.8 nM and 139.2 nM and 90.6 nM.

Q: And the “concentration in Ventral Dura” value?
A: The value was 113.7 nM and 71.6 nM and 29.8 nM and 138.3 nM and 165.6 nM and 259.4 nM and 192.6 nM and 150.8 nM and 211.8 nM and 96.1 nM.
